In patent US20170101477A1:

Legend:
[1] = target: extracellular domain portion of LEPR protein expressed with a C-terminal human Fc tag (hLEPR.hFc) (human); experiment: ELISA, 500 nM Ab, 10 nM hLEPR.hFc to coated hLeptin
[2] = target: Mycx2-hLepR(ecto)-GPI anchored, on HEK293/hLEPR-GPI cells (human) (UniProt P48357); experiment: FACS, 10 nM Ab, HEK293/hLEPR-GPI, 1 uM Leptin
[3] = target: Mycx2-hLepR(ecto)-GPI anchored, on HEK293/hLEPR-GPI cells (human) (UniProt P48357); experiment: FACS, 10 nM Ab, HEK293/hLEPR-GPI, no added Leptin
[4] = target: human LEPR extracellular domain expressed with a C-terminal myc-myc-hexahistidine tag (hLEPR.mmh) (human) (UniProt P48357); experiment: Luminex, myc-captured LEPR protein
human LEPR extracellular domain expressed with a C-terminal myc-myc-hexahistidine tag (hLEPR.mmh) (human), sequence (P48357 other isoform, or with tags, fused parts or gaps): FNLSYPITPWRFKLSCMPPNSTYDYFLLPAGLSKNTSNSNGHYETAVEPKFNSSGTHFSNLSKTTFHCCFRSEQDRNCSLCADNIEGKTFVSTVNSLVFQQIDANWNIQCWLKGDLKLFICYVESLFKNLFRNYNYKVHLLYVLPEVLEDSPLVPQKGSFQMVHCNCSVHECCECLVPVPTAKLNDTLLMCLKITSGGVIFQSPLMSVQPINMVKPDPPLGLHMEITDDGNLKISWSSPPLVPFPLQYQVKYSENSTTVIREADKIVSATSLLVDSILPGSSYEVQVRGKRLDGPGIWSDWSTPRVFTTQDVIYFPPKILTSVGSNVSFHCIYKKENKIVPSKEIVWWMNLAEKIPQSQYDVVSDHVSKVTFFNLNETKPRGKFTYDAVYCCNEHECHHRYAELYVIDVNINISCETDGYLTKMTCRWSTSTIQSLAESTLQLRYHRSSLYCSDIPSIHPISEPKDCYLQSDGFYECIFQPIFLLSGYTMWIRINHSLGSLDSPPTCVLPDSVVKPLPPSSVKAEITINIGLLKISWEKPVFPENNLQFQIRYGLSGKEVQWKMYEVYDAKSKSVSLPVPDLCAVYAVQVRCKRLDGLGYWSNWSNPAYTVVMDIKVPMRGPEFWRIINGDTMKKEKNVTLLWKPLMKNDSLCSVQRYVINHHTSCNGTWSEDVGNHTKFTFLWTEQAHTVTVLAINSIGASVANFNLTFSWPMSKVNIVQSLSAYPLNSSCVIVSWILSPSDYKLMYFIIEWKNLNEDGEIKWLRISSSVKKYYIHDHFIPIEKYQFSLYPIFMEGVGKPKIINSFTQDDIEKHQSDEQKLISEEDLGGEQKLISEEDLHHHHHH

[5] = target: human LEPR CRH1 (D1,D2)-MMH (human) (UniProt P48357); experiment: Luminex, myc-captured LEPR protein
human LEPR CRH1 (D1,D2)-MMH (human), sequence (P48357 22-339 limits assumed): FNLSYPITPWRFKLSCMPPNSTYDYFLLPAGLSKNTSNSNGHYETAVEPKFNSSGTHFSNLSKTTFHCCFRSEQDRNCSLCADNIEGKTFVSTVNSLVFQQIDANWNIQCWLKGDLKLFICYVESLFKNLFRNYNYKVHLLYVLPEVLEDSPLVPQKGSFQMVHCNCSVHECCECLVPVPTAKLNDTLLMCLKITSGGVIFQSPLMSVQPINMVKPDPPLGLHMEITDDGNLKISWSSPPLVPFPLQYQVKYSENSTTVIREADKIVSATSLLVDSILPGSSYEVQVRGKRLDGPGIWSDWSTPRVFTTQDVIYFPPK

[6] = target: human LEPR CRH1 (D1,D2,D3)-MMH (human) (UniProt P48357); experiment: Luminex, myc-captured LEPR protein
[7] = target: human LEPR CRH1 (D1)-MMH (human) (UniProt P48357); experiment: Luminex, myc-captured LEPR protein
[8] = target: human LEPR Ig (D3)-MMH (human) (UniProt P48357); experiment: Luminex, myc-captured LEPR protein
[9] = target: human LEPR CRH2-MMH (human) (UniProt P48357); experiment: Luminex, myc-captured LEPR protein
[10] = target: human LEPR Ig-CRH2-FNIII-MMH (human) (UniProt P48357); experiment: Luminex, myc-captured LEPR protein
[11] = target: human LEPR FNIII-MMH (human) (UniProt P48357); experiment: Luminex, myc-captured LEPR protein
[12] = target: human LEPR CRH1-Ig (D2,D3)-MMH (human) (UniProt P48357); experiment: Luminex, myc-captured LEPR protein
[13] = target: human LEPR extracellular domain expressed with a C-terminal myc-myc-hexahistidine tag (hLEPR.mmh) (human) (UniProt P48357); experiment: SPR, mAb captured, 37C
[14] = target: macaca fascicularis LEPR extracellular domain expressed with a C-terminal myc-myc-hexahistidine tag (mfLEPR.mmh) (Macaca fascicularis); experiment: SPR, mAb captured, 37C
macaca fascicularis LEPR extracellular domain expressed with a C-terminal myc-myc-hexahistidine tag (mfLEPR.mmh) (Macaca fascicularis), sequence (Q9MYL0 other isoform, or with tags, fused parts or gaps): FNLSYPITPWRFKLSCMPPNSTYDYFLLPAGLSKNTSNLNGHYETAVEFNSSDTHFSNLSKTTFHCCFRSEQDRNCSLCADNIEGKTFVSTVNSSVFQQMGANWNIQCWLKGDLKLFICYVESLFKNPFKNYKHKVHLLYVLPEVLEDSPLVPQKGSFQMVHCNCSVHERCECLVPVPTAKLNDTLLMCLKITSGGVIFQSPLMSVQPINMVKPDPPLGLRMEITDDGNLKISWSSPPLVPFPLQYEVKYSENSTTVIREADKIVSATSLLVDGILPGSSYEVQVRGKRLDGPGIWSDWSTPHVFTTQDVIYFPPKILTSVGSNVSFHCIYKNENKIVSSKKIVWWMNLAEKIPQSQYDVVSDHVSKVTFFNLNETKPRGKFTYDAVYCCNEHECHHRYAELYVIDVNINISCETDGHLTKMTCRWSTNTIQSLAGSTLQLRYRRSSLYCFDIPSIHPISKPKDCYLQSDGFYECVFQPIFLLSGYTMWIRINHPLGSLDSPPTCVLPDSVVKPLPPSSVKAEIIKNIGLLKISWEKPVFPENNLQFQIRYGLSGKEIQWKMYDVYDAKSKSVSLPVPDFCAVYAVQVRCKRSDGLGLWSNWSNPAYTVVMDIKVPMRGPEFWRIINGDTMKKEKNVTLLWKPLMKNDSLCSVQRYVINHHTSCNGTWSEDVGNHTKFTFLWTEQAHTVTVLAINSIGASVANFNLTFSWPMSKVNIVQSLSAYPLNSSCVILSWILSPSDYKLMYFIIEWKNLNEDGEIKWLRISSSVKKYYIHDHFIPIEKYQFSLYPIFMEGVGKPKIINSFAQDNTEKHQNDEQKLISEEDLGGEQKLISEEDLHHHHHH

[15] = target: human LEPR extracellular domain expressed with a C-terminal mouse IgG2a Fc tag (hLEPR.mFc) (human); experiment: SPR, mAb captured, 37C
human LEPR extracellular domain expressed with a C-terminal mouse IgG2a Fc tag (hLEPR.mFc) (human), sequence (chain, as listed by the source limits assumed): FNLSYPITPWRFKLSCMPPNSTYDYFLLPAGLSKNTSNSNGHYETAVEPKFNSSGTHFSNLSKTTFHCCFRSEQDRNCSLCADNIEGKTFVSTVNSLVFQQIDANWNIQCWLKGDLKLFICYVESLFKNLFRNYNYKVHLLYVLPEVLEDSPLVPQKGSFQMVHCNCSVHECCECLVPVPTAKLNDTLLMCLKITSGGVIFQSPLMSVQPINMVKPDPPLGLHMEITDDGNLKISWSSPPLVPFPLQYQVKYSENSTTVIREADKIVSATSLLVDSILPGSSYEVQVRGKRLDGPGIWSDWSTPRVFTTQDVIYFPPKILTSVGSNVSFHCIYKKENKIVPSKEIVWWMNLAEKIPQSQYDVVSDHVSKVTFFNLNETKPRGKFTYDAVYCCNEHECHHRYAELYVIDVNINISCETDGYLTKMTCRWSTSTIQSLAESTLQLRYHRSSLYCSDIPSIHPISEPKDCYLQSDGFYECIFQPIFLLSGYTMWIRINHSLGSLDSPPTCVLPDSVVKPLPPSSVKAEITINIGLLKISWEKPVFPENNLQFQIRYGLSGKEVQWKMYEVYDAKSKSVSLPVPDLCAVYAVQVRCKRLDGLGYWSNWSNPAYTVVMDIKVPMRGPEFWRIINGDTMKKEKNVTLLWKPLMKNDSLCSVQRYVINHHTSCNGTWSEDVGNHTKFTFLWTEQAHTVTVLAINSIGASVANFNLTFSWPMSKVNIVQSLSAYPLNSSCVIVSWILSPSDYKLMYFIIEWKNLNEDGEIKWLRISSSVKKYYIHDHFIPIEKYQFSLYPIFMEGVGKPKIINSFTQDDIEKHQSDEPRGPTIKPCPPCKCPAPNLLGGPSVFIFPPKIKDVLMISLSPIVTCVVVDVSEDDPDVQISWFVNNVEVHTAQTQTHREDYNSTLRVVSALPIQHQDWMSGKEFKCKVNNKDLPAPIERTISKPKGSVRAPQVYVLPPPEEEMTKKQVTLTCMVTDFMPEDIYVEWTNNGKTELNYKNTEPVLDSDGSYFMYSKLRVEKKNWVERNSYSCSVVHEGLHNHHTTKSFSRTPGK

[16] = target: Mycx2-hLepR(ecto)-GPI anchored, on HEK293/hLEPR-GPI cells (human) (UniProt P48357); experiment: FACS, 70 nM Ab, HEK293/hLEPR-GPI
[17] = target: full length human LEPR (amino acids 1-1165 of P48357, Isoform B), on cells (human) (UniProt P48357); experiment: FACS, 70 nM Ab, HEK293/Stat3-luc/hLEPR-FL
[18] = target: human LEPR extracellular domain expressed with a C-terminal myc-myc-hexahistidine tag (hLEPR.mmh) (human) (UniProt P48357); experiment: SPR, mAb captured, 25C
[19] = target: macaca fascicularis LEPR extracellular domain expressed with a C-terminal myc-myc-hexahistidine tag (mfLEPR.mmh) (Macaca fascicularis); experiment: SPR, mAb captured, 25C
[20] = target: human LEPR extracellular domain expressed with a C-terminal mouse IgG2a Fc tag (hLEPR.mFc) (human); experiment: SPR, mAb captured, 25C

extracellular domain portion of LEPR protein expressed with a C-terminal human Fc tag (hLEPR.hFc) (human), sequence (chain, as listed by the source limits assumed): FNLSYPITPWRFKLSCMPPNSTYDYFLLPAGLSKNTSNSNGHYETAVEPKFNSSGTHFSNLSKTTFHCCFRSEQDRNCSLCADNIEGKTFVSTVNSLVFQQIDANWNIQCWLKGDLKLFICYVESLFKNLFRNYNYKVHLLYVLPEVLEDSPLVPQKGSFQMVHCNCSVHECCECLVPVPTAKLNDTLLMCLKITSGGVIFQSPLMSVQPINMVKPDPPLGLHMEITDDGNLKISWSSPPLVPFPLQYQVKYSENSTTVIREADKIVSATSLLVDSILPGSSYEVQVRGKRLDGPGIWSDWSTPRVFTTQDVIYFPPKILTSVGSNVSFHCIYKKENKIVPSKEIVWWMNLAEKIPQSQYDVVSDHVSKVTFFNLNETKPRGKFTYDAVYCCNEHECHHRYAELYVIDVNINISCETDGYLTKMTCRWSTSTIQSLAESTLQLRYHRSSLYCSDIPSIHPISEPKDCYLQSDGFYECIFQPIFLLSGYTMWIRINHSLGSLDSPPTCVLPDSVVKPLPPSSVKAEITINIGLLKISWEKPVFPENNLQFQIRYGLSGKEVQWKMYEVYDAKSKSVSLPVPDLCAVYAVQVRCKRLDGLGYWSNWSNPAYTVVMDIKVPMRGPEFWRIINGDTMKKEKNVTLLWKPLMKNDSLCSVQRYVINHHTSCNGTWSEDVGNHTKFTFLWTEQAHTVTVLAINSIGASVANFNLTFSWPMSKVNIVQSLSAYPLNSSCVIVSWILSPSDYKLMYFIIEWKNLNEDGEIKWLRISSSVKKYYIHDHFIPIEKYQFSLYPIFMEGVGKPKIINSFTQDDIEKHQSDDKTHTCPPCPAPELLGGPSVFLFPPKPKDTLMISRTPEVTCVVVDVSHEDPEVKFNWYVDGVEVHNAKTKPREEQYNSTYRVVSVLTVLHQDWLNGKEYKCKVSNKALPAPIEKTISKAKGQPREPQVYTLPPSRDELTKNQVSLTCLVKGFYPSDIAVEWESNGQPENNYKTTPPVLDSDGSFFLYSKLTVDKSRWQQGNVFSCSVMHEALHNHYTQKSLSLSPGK
Mycx2-hLepR(ecto)-GPI anchored, on HEK293/hLEPR-GPI cells (human), sequence (P48357 22-839): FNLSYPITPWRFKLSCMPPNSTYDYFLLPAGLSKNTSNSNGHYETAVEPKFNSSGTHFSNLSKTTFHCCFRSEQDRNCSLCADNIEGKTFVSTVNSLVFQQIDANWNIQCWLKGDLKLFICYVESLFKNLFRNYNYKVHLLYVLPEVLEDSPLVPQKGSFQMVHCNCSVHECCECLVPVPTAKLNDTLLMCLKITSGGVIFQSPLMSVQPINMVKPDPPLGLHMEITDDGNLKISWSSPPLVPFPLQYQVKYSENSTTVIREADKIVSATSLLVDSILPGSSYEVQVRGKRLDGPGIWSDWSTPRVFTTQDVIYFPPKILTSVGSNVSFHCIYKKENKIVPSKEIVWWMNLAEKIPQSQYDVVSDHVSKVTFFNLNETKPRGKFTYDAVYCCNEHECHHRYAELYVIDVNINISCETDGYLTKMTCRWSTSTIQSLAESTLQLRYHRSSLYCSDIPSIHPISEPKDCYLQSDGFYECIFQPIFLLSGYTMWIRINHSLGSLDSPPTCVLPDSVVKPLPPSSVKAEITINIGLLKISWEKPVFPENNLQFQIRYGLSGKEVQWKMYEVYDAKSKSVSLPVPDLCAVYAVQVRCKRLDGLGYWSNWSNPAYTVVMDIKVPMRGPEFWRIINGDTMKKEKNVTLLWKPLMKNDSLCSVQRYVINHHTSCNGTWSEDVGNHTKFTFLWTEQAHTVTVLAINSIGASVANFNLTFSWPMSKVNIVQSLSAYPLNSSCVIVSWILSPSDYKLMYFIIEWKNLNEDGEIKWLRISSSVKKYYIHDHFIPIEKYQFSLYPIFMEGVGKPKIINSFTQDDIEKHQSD

Substance	% blockade [1] [%]	Binding Ratio [2] [fold]	Binding Ratio [3] [fold]	Luminex MFI [4] [MFI]	Luminex MFI [5] [MFI]	Luminex MFI [6] [MFI]	Luminex MFI [7] [MFI]	Luminex MFI [8] [MFI]	Luminex MFI [9] [MFI]	Luminex MFI [10] [MFI]	Luminex MFI [11] [MFI]	Luminex MFI [12] [MFI]	100 nM hLEPR-MMH Bound (RU) [13] [RU]	100 nM mfLEPR.MMH Bound (RU) [14] [RU]	100 nM hLEPR-mFc Bound (RU) [15] [RU]	Binding Ratio [16] [fold]	Binding Ratio [17] [fold]	100 nM hLEPR-MMH Bound (RU) [18] [RU]	100 nM mfLEPR.MMH Bound (RU) [19] [RU]	100 nM hLEPR-mFc Bound (RU) [20] [RU]
Comparator mAb (Fab9F8 described in Fazeli et al. 2006 and Carpenter et al. 2012) (antibody)	99	112	2350	3910	19	-57	-14	10	9400	7110	73	27								
Isotype Control mAb (antibody)	-3	4	6										6	1	1	2	2	4	0	-2
Mouse IgG2a Isotype control (antibody)	32																			
